The data set can be described thus: protease stability score; higher = more stable; yeast display proteolysis, trypsin and chymotrypsin.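 Note: relative to predicted unfolded state with 0 unfolded-like and 1 meaning tenfold more protease.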
“SEVEEDIRKWLKEHTDSIRTGDEERMLRNMDPHVRVDIDGVEHHGWEHLEEFIHRLTKKIKNMRVDWHRVRFQGDKAEIDGELDIDGRVTHVHIHSIKVDGRWYIKEIYIT” had a protease stability score of 1.24.

For the sequence “SEVEEDTKRVLELLRESWKTGDEHSIKEMLDPNVKILVGDKEFHGMEDWHRIYKRFDYISIRHVRLKDSRHINGVVYLIIHIESEYRIGDKTTEKRYDASIINEKVDGRWIIRSIEIH”, the protease stability score is 1.91.

The sequence “SEVEEEMEEILKKLLTAFRTGDEKTLEDLLDPHVRLEIGDKTHVGWRDIAEFLRRHIERVDHMRINIDHMEIQGEKIHIDGTLHFWIGDKRHHEKVHLIFVIVNGRLKKIHIHKI” returned a protease stability score of 2.64.

“SEVEEEMKRRVELLIRLLLTGDEDTFDSNADPDTRVVIRQGDFRVENHGRELMLHHLRELGIKVTELHLREIRIQGDWAHVNIQEHIEVDGRLESRTIHLHFFLVDGKVKSWEIEVR” returned a protease stability score of 1.27.

Turning to “SEVEEEMTRIADILLRVTKTGDWEEMRDLIDPDARMIIDIDGREHINVGREDLARSLKRLRDHLGVKVWDYHHISVIGDKIHIETQQRFNGQDVTTRNEWTVINGKLKEMRLIIH”, the protease stability score amounted to 2.02.

Regarding “SEVEEFVKRVIHLFHKAFLTGDEHTLIELIDPNARYDVDGRDVHGREIIVEFISTMWRDRGIRIKHVHIEERRYINGRIEIHSKIDVTIGDKREHLETSMIWVKINGQWFIEILIVR”, the protease stability score is 0.233.

As to “SEVEELSRRVAEFTWEVLRTGDERLLREMIDPNVRMEIDGQEYHGMELLVEHWIKLHQKFPNLKLHLREVRVIDGVAHVRLEVRFNGVRLEIEVVITKINGRWSNTFVHETDR”, the protease stability score turned out to be 1.13.

Regarding “SEVEERFKEEMHRQFENSETGNEDEVAKYFDPDARMHIDGKEIHGRDEVKRILSEWRLTHITLRDFRIVGNKIHTDAEVVIEIGDKKIRYRVHIIQYKVNGQWRVESFEVK”, the protease stability score came to 0.88.

Regarding “SEVEESAKIIAELWAHSVETGDEHTLRELMDPNTRFEYGDKERHGRENVTKYFLHFQKWLGFKHIRLEIEDSKAIGDKIKIDLTIKLHQGEKHDFVIVQLFVTKVNGRWVIHSMIVH”, the protease stability score is 1.58.

“SEVEESIEHAREIVTEVIKTGDEHHLNRLADPNTRVVFDGKDLHGRERLEEVLREMGVNHIEIKDMKYDSQGNKVHIDIDGRVNVGEKSHNTHLHWIVEKVNGRWLLSSIIIIIR” showed a protease stability score of 0.886.

As to “SEVEEWLRTLIHLIILAFRTGDEDQMRRNFDPNARVHVGDKDYHGRELFEEMMHHWRLHHIHIHDVRVQGDYVEADIKLDGEVNGKRFTTRVIIVFLKIDGKWQEKESEFV”, the protease stability score is 0.395.

The sequence “SEVEHALHEILEILVKIMKTGNFEDLIRNFDPHVQLEFNGKRYHGREAEHFLRERFDHNRHHHVHEVRVQGDKVELHGKLIGEFNGREEEVHIDIIAHKINGRWIFKSVHFR” showed a protease stability score of 2.15.

In the case of “SEVEKHLHNVIELYIRALRTGDEERLRKLLDPHVRVRIGDKHLHGREDWWQHVTRYDHESVHDLKIDHVRVVGNKIEMIITHDIIIIVNGVNLRHSIETEVHARKVDGVWYLTELHHG”, the protease stability score is 0.075.

In turn, “SEVEKMARHFVELLSKALLTGNWKTIKELVDPNDLLVVGDKIFHGWDVREEERKRFDHHVMDVKVDHHRDIDGRIEMETTLHLDVNINGVRFHFNHETEMIVRKVNGRWILKSETIR” gave a protease stability score of 0.087.

“SEVERLLREILKLVQHAYETGDEETITELVDPHARMDINGKELHGRDMLHLLLRRIDHEHMRVEMKSVEIQGEWAISRGEEQVHVHVNGKKFDLVINSRVVLHKVDGQWVVRSLFYK”: the protease stability score came out at 0.787.

“SEVHEQIEEIFREFMHMLLTGDWKRLTELADPHVRLEFDGREFHGREELVRRLLELGFKHQHLHDMRIHNFDGRVYMHTDTRVHVDGKHVIVRLELIVNKFNGQWYVHSLRIEVQ” showed a protease stability score of 0.343.

For “SEVHRDLRKAVDYFEEVFRTGDEDKMNNLLDPNVRWIVNGKDLVGREKAIRRYHEHRKTLGVNHFETRIDDQEVYGNKATLHGELTIHVNGRDIHHETRLNVSKINGVWYIESFIID”, the protease stability score worked out at 0.949.

“SEVNKHVEEISKLMVKFLLTGNEDLHKSLADPNYYSDVNGRHVIGRHHVEELWHLFLNEIRIDNIHIEDMKIQGEKAHIQGRIIGTVNGKHDELHATMIVVVIDGRIHSLKVEWR” gave a protease stability score of 1.

Regarding “SEVQELAERMFRFLLKVFETGNEDRLTELMDPNTLQIIGDKRNHGRDLYLRTVFEKVEHARMRIEFKEVHVINGQINVDGILWLEFDGRRIFFRVHLELTVVNGVLKEEHVTIH”, the protease stability score came to 1.56.

Take “SEVQESIKEVIEIWNKALETGDWHRLTELADPDTRVEIGDKDIIGREAVTSELEKVTHKFKNLRIDEIHIERLEIQGEKVELHGIIRGTVNGQHRFYHTEFIIVKINGRWRLRVIYFL”: the protease stability score came to 1.79.

In the case of “SEVQETIDHLVREVLHDFRTGDERRLEENMDPNAKSIFDGRESHGREKVSKMIHDFLEEMGFKHMELKEREVVGNKVEIHGRVIIGDKEFELHLHSQKIDGRWVLDSIRIE”, the protease stability score came to 0.52.

As for “SEVREDIERILTQWSKIMETGDEHTAKRLADPHVKIEVDGRTSVGMETWMEFLRDLGFKVIHVRVHIEHVRDIDGKARVDIRLVIESNVGDKTERYEHETHMIIEKIDGRWVLTRILLK”, the protease stability score worked out at 1.01.

The sequence “SEWDELLRHILEVMINSVLTGDEHRQLWMADPHAKVHFENHEVHGRDHWSHLVREHINEIRMRIHLHDEKTVGNFAVSDVRYREEVNGVELSTEIELILIVVDGRLKQIEFRYH” yielded a protease stability score of -0.029.

The sequence “SEWDRLMKRIAEDITTALQTGDEDRMHELFDPHARMILLIGDFELHYHGMHEISRVLEEHLRRYDHLEWHIRHVDTQGNKVRVESEMRLIIGDKSETRDYRIILIVINGRNKSVEFRVH” came in with a protease stability score of 1.49.

“SEWEEELERLLREIIHSILTGDEKRLRELMDPNAKFHILVNGVEIDLMGMEHHSHWFREWLKHARINTVHIRHYDVVGEKARSDTELDMEIDGRRIRTRTELILVVIDGRVHSLEIRIK”: the protease stability score worked out at 2.02.

Sequence “SEWEEFMERMLELVIEVMKTGDFDRFRSLFDPHVKIRIIIGDKHHEFHGWLWLRTLIEKMGIDHLQINVRSYRIIGDKLEVDGELLSHYNGRTSHRTVHYHIVIINGRLHHITIEYH” displayed a protease stability score of 0.214.

The sequence “SEWEEISRKISRDWTEWLETGDFETFMNYVDPNARYRQGDKDLHGMETLHRYIYHMRMHIRIRRIDHQGDYILIDGELELRQGDKTHRFESIIYIIVIDGKLRRFEIRER” returned a protease stability score of 0.733.

“SEWEHNLQRFIEELIEDARTGNEENIRENMDPDVRAEVDGQELHGREAQRFVRERIDVIKHNHLREIRFQGDFIHVRGELRGEVNGKEVHTDTHFVIWKFNGRWIIRHVLIR” came in with a protease stability score of 1.03.

As to “SEWEKDLELALRFVMHAFTTGNWEDLLKFFDPDVRIEVGDKEIHGRHVFFEFLEKLGVKHLRLEIELNHFEIQGDKIHEHGIYRFTYHYNGRVEKKEHDTRVHVTKINGRWYLTHQRVD”, the protease stability score came to 0.668.

In the case of “SEWEKQLRHMVHLVLLAVRTGNEHLLNELLDPDTRAVFNGVESVGREDMWRMLKHLRIERVRVHDERHDDQGNKARFILLGETQVNVNGKVLETHTEIEIILIKVDGQWTFETLTFRIT”, the protease stability score came out at 1.55.

“SEYEDLIKTALHLWHEIFLTGNEDVLHRLIDPHVRVTFNGVRNHGRDYLLHHIEELGMEHHNFDISHVDMQGDKIILYTFLHAHVNGRTTSFQLHIFWIKVNGRWIVKRVEIR” displayed a protease stability score of 0.759.

“SEYEEEMRETLELTALYMRTGNEEDMKELMDPDAKIDVGDKHFHGREQVLHVIKHWRSKHIILREVDFQGEYIHSNGQVTTLINGRELDVESRWIILKVDGRWLVHSVLYL”: the protease stability score came out at 0.758.

“SEYEEESRIAYELFLETVRTGDEDTSREQADPNVRVDVNGVHLHGRELWAEFVSKYKGMQLDLHHVEIQGNKVTNDGTLTVNGVRRKVHLRINKVNGKWILESVHIH” returned a protease stability score of 1.32.

Regarding “SEYEEEVRRAMELEIRSIKTGNEELIKHLMDPNVRLVIGDKNFHGREAIEVFVERFDYIHEVEITSIDLQGDFVNMRGVLDGRINGQRLRTKVHYISRKVDGRWFSESIHIR”, the protease stability score was found to be 0.66.

“SEYEEFLKEALRILIDDILTGDWRLVYKLFDPETRLNVNGQEIHGRDDVVHHLTHIAREWRMDVKVKEYNVFDGQIHMFGHLQLEFDGREYRRRVELIIIKFNGQWHLRQVVKH”: the protease stability score came out at 1.58.

With “SEYEEWSERHLKHWEDARDTGDFDSETDLLDPHMRFQLIIGEKRVRFHGMEVLIEHVLRFKNATVREQKSHVEVIDGRIYIRLEGRYDVNGKDFDVEIIIISEKVNGRWILRYIEIRIH”, the protease stability score stood at 1.55.

In the case of “SEYEHEAREVMHRLIHATETGDEEQILRMIDPHVRIDINGVELIGWRHLEEYLRRIDVVYIRIDARRVDVQGDKIRVDTEMDVEVDYDGRKFRHKEKTIIFMHKVDGRWLITSFHVL”, the protease stability score was 2.7.

As to “SEYERDFRYAFNIYARDVLTGDEESLRRLLDPNMRIDVNGVHIHGREHLLQIWHEIRIHHFEIDLKHIEVQGNKIHVHGETHIDGEINGQRDEFKIRDSLLVLKVNGKWIFKRFIVD”, the protease stability score stood at 0.951.

“SEYYEESKRMAEEHQHMRETGDEDRLRHLMDPTTKVEVGDKEFHGREWWHEFYKRFDHIEFRIHDIKLIDGVAIIQSIIIVRQGDKSDTLHVTIRITKVNGRWRTKSFEVI”: the protease stability score stood at 1.48.

As to “SHDEDRLREMIERWVEFMITGDEDRLRELADPNMRIHVNGKDLHGREEYARWINELGVKHIEITHVDLQGDKIDIVTELRFDGRTHDIHIKARKIDGRWHLTEFREE”, the protease stability score came out at 1.34.

Sequence “SHDEELVERVLKMYKHAIETGDEELLTLLLDPDTRLEIDGVDFHGMDIAIHILFKELLRHGIRTEHMRVEDVKVQGDFVHVDVEVNIDVDGREETERRHLVLWKFNGRWRVKHHHIH” came in with a protease stability score of 2.35.

With “SHDEEQVDRFLKLWSHAVMTGDWKFMYELLDPHTRLVINGKNVHGREEISKFFHDHVSRIKNLKIEVHLNEVRIFDGRAHLDIEVRIHIGDKNHTIHVEIVVEKVDGRWHVHSIHEK”, the protease stability score was 1.36.

In turn, “SHDEEWARRFFEDFVRAILTGDEEHLFKNVDPNVRVEIGDKELHGREDFHQHLHEIRIKRFEVHDLTLQGEKVEEDIEMDGQVNGQRFRTRQRVVVDWVNGRFHHLKIEWE” gave a protease stability score of 0.715.

The sequence “SHDELLATRLVEEVWELWLTGDEDRTAELLDPDVRFFFIVGDKTHTFHGRDKIRKLMHDLRNHWRIHHIRIERFRVQGEYSEFDVRSHGRYNGVEEETTVHLSLDVVNGKVKRIIVHIR” showed a protease stability score of 1.6.

Take “SHEDELIEKTLHITLEAYTTGDEHTVTRMLDPHVKILFNGVELIGRELVWEHLKEIRMHWHHVHIEDIKRQGEKIHITGRLYMEIRQGDYRERSTYRTRIITLKINGRWFIESLEIN”: the protease stability score worked out at 1.95.

In turn, “SHEDELIERFYKWLIHILETGDEERWMEYADPDARLLYNGKDLIGRDEARRQMHEMRFHHMEVKSIRVVDGKVNVTGRIDGEINGRHHEHEVLLVIIKFNGKWLIKTVQFH” displayed a protease stability score of 1.22.

Regarding “SHEDELNEKIAKTFFKDLLTGDEDSITHLLDPNARVHIHVNGRHILIHGREWLEYLKKHARIRHFELHDMEIQGDKLIFDVEVVIEYGDKVIERRSEEILILFNGRVTSYHLIIK”, the protease stability score is 1.2.
